Assay [1] addresses T1, Bcl-2(1-218) (human, UniProt P10415 1-218).
T1 construct: Uniformly 15N-labelled for NMR. pSKB2 vector with HRV 3C cleavage site; also called cytoplasmic region of Bcl-2 (residues 1-218); Becl-2(1-218); source: E. coli BL21 (DE3), purified (Ni-NTA, His6-tag cleaved with 3C protease, Superdex 75); not shown: His6, N-terminal, cleaved
Nature of the assay: NMR titration; 1H-15N TROSY-HSQC spectra of 10-45 uM uniformly 15N-labelled Bcl-2 fragment without and with Beclin 1 BH3 peptide added from a d6-DMSO stock; 25 °C, 20 mM sodium phosphate pH 7.3, 1 mM TCEP, 7% D2O. As to conditions: both partners purified.

The target in assay [2] is T2, Bcl-2(1-206) (human, UniProt P10415 1-206).
T2 construct: vector analogous to that of human Bcl-2(1-218), isoform alpha; Uniformly 15N-labelled for NMR; Vector was a gift from Beth Levine, called analogous to the pSKB2 vector of Bcl-2(1-218); also called Bcl-2 fragment lacking the juxtamembrane region; Bcl-2(1-2-6); source: E. coli BL21 (DE3), purified (Ni-NTA, His6-tag cleaved with 3C protease, Superdex 75); not shown: His6, N-terminal, cleaved
The assay is described as above. As to conditions: both partners purified.

The values below come from PMC10598227, “Structural insights for selective disruption of Beclin 1 binding to Bcl-2” (Communications Biology, 2023).

T2 sequence (P10415 1-206): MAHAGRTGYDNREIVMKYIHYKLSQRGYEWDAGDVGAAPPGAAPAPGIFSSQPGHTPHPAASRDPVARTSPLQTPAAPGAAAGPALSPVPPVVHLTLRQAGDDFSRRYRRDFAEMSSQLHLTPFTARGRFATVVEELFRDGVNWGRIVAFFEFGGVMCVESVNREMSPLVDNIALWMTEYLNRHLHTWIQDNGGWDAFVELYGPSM
T1 sequence (P10415 1-218): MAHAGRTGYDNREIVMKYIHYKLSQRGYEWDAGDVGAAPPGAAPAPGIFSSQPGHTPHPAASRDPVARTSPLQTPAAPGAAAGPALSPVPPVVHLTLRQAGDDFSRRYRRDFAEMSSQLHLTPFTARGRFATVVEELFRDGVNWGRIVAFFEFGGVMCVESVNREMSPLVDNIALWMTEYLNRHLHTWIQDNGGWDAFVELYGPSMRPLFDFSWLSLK

B1: Beclin 1 BH3 peptide (peptide)
peptide: DGGTMENLSRRLKVTGDLFDIMSGQT
notes: Beclin 1, human, residues 105-130 (BH3 domain); L-amino acid peptide, dissolved in d6-dimethylsulfoxide; also called Beclin 1 BH3 domain; source: synthetic peptide (Protein Chemistry Technology Core, UT Southwestern), HPLC purified
Turning to B1, the binding result in assay [1] and in assay [2] was “binds” each time.
